These results are taken from patent US20130045305A1.

Test [1] deals with Val-Gly.
The target of test [2] is glutathione.
Test [3] has as its target Val-Gly. This is another data set of the same source.
In test [4] the target is glutathione. The source holds these as a separate data set.

Consider “Glutaminase Daiwa SD-C100S, Daiwa kasei (enzyme)”, for which the γ-Glu-Val-Gly (ppm) in the reaction mixture after reaction with glutaminase, 4000 ppm Val-Gly added in the test with Val-Gly [1] was determined as 16 ppm. Also, in the test with glutathione [2], the GSH (ppm) in the reaction mixture after reaction with glutaminase, no Val-Gly added was 3.1 ppm.

Regarding “Gsh2p (glutathione synthetase) of Saccharomyces cerevisiae (enzyme)”, the γ-EVG, µg 1^-1 OD600^-1, formed in cells cultured with 100 ppm γ-Glu-Val, strain S288C ura3Δ227/YEp24-PTDH3-GSH2 (µg 1^-1 OD600^-1) in the test with γ-Glu-Val is 705.

As for “γ-Glutamyltranspeptidase from equine kidney, Sigma, Code G9270-100UN (enzyme)”, in the test with Val-Gly [3], the γ-Glu-Val-Gly (ppm) in the reaction mixture after reaction with γ-GTP, 4000 ppm Val-Gly added came to 340 ppm. Besides, the GSH (ppm) in the reaction mixture after reaction with γ-GTP, no Val-Gly added in the test with glutathione [4] is 432 ppm.

B1: Hgt1p of Saccharomyces cerevisiae (protein)
chain: MSTIYRESDSLESEPSPTPTTIPIQINMEEEKKDAFVKNIDEDVNNLTATTDEEDRDPESQKFDRHSIQEEGLVWKGDPTYLPNSPYPEVRSAVSIEDDPTIRLNHWRTWFLTTVFVVVFAGVNQFFSLRYPSLEINFLVAQVVCYPIGRILALLPDWKCSKVPFFDLNPGPFTKKEHAVVTIAVALTSSTAYAMYILNAQGSFYNMKLNVGYQFLLVWTSQMIGYGAAGLTRRWVVNPASSIWPQTLISVSLFDSLHSRKVEKTVANGWTMPRYRFFLIVLIGSFIWYWVPGFLFTGLSYFNVILWGSKTRHNFIANTIFGTQSGLGALPITFDYTQVSQAMSGSVFATPFYVSANTYASVLIFFVIVLPCLYFTNTWYAKYMPVISGSTYDNTQNKYNVTKILNEDYSINLEKYKEYSPVFVPFSYLLSYALNFAAVIAVFVHCILYHGKDIVAKFKDRKNGGTDIHMRIYSKNYKDCPDWWYLLLQIVMIGLGFVAVCCFDTKFPAWAFVIAILISLVNFIPQGILEAMTNQHVGLNIITELICGYMLPLRPMANLLFKLYGFIVMRQGLNLSRDLKLAMYMKVSPRLIFAVQIYATIISGMVNVGVQEWMMHNIDGLCTTDQPNGFTCANGRTVFNASIIWSLPKYLFSSGRIYNPLMWFFLIGLLFPLAVYAVQWKFPKFKFAKHIHTPVFFTGPGNIPPSTPYNYSLFFAMSFCLNLIRKRWRAWFNKYNFVMGAGVEAGVAISVVIIFLCVQYPGGKLSWWGNNVWKRTYDNDYKKFYTLKKGETFGYDKWW
B1: the intracellular content of γ-Glu-nVal-Gly on the dry weight cell, 100 ppm added in the test with γ-Glu-nVal-Gly came to 2.84%.
